Test [1] concerns the target T1, His-tagged SARS-CoV-2 RBD (early pandemic, Wuhan) (SARS-CoV-2, UniProt P0DTC2). As to the kind of experiment: SPR. As to conditions: both partners purified.
Test [2] deals with T1, His-tagged SARS-CoV-2 RBD (early …). As to the kind of experiment: crystal structure. As to conditions: both partners purified.

B1: EY6A mAb (IgG) (antibody, V domains shown)
VH: EVQLVESGGGVVQPGRSLRLSCAASAFTFSSYDMHWVRQAPGKGLEWVAVISYDGSNKYYADSVKGRFTISRDNSKNTLYLQMNSLRAEDTAVYYCAKDGGKLWVYYFDYWGQGTLVTVSS
VL: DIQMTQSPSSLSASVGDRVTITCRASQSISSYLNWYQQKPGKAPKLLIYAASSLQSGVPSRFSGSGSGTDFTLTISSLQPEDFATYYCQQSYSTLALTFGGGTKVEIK
For orientation: Kd means the constant that tells how readily two partners part at equilibrium. A low value points to higher affinity. In turn, B1 displayed an equilibrium dissociation constant (Kd) in test [1] of 7.8 nM.

B2: mAb 58 Fab (COVOX-58) (Fab, V domains shown)
VH: QVQLVESGGGLVQPGRSLRLSCAASGFTFDDYAMHWVRQPPGKGLEWVSGVSWNSGTIGYADSVKGRFIISRDNAKNSLYLQMNSLKAEDTALYYCAREVGGTFGVLISREGGLDYWGQGTLVTVSS
VL: SYELTQPPSVSVAPGQTARITCGGNTIGSKSVHWYQQRPGQAPVLVVYDDSDRPSGIPERFSGSNSGNTATLTISRVEAGDEADYYCQVWDSSSDRVVFGGGTKLTVL
For the molecule B2, in test [2], the binding result is listed as “binds”.

B3: mAb 158 Fab (COVOX-158) (Fab, V domains shown)
VH: EVQLLESGGDLIQPGGSLRLSCAASGVTVSSNYMSWVRQAPGKGLEWVSIIYPGGSTFYADSVKGRFTISRDNSKNTLYLQMHSLRAEDTAVYYCARDLGSGDMDVWGKGTTVTVSS
VL: DIVMTQSPSFLSASVGDRVTITCRASQGISSYLAWYQQKPGKAPKLLIQAASTLQSGVPSRFSGSGSGTEFTLTISSLQPEDFATYYCQQLNSYRYTFGQGTKVEIK
Take B3: the binding result in test [2] is listed as “binds”.

B4: Beta-55 mAb (IgG) (antibody, V domains shown)
VH: QVQLQESGPGLVKPSETLSLTCTVSGDSISSSRYYWGWIRQPPGKGLEWIGTFYYSGITYYNPSLKSRVTIFVDTSKNQFSLKLSSVTAADTAVYYCARPRPPDYYDNSGALLFDIWGQGTMVTVSS
VL: AIRMTQSPSTLSASVGDRVTIACRASQSISAWLAWYQQKPGKAPKLLIYKASSLESGVPSRFSGSGSGTEFTLTINSLQPDDFATYYCQQYISSSPWTFGQGTKVEIK
Take B4: binding in test [1] was characterised by a dissociation constant (Kd) of 0.177 nM.

Values taken from PMC8723827 (Cell, 2022).
